Sequences and labels used below:
T1: human CD22-ECD-His protein (human, UniProt P20273 20-687)
T1 construct: Made in house in HEK293E; also called hCD22-ECD-His; recombinant human CD22-ECD His protein; not shown: His tag
T1 sequence: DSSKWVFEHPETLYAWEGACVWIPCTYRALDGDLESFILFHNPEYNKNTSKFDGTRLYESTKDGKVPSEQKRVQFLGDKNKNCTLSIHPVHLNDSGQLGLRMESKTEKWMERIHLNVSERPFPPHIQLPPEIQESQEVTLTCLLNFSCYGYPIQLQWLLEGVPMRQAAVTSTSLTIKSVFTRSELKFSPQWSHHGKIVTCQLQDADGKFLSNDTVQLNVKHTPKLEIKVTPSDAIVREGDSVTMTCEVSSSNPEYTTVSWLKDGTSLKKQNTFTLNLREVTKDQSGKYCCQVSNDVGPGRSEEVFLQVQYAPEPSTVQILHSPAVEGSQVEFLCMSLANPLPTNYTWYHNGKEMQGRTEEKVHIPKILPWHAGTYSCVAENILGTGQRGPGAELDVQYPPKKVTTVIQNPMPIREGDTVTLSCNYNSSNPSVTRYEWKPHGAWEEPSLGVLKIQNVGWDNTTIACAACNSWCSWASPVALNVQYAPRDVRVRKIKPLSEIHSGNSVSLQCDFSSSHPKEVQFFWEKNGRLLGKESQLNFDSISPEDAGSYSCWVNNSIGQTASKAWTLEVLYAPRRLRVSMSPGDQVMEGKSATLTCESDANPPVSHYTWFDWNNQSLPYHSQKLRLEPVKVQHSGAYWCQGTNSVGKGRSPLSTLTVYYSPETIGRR

T2: murine CD22 protein (ACROBiosystems, SI2-M52Ha) (murine, UniProt P35329 22-708)
T2 construct: extracellular domain; also called murine CD22-ECD; murine CD22-ECD-His
T2 sequence (looked up): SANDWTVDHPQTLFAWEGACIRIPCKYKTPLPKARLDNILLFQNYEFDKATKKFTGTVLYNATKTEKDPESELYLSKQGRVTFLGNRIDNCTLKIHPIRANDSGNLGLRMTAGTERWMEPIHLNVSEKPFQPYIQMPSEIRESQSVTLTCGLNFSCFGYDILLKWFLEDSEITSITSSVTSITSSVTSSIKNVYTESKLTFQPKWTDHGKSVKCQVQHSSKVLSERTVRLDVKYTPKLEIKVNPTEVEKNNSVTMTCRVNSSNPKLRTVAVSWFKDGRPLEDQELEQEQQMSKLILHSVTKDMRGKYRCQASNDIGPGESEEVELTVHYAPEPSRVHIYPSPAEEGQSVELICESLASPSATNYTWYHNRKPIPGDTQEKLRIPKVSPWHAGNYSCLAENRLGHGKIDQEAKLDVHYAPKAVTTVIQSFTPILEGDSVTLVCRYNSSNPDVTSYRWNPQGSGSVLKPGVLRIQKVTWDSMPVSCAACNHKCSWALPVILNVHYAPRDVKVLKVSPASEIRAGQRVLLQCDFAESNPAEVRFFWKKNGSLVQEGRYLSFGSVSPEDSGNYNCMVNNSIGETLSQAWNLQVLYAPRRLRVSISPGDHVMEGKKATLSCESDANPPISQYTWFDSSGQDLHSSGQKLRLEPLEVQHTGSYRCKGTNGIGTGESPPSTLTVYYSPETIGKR

B1: F2.70.2 (antibody, human IgG1, lambda, V domains shown)
VH: EVQLVESGGGLVKPGGSLKLSCAASGFTFSDYGMNWFRQAPEKGLEWVAYISRGSHTIYYADTVKGRFTISRDNAKNTLFLQMTSLRSNDTAMYYCVRMAGYYAMDYWGQGTSVTVSS
VL: QLVLTQSSSASFSLGASAKLTCTLSSQHSSYIIEWYQQQPLKPPKYVMELKKDGSHSTGDGIPDRFSGSSSGADRYLSISNIQPEDEAIYICGVGDTIKEQFVYVFGGGTKVTVLG
notes: Human-murine chimeric IgG1, lambda
B2: F2.104.10 (antibody, human IgG1, lambda, V domains shown)
VH: B1 VH with L11F, K76E, V114L
VL: B1 VL with L50V, P84S
notes: as for B1
B3: F1.257.3 (antibody, human IgG1, kappa, V domains shown)
VH: QVQLQQSGPELARPGASVKLSCKASGYTFTSYGISWVKQRTGQDLEWIGEIYPKLGTTYYNEKFKDKATLTTDRSSSTAYMALRSLTSEDSAVYFCACPHYYATRGGDYWGQGTTLTVSS
VL: EIVLTQSPATLSVTPGDSVTFSCRASQSISNHLHWYQQKSHESPRLLIRYASQSISGIPSRFSGSGSGTDFTLSLSSVETEDFGVYFCQQSHSWPYTFGGGTKLEIAR
notes: Human-murine chimeric IgG1, kappa
B4: F2.343.16 (antibody, human IgG1, lambda, V domains shown)
VH: QVQLKQSGPGLVQPSQSLSITCTVSGFSLTGYGVQWVRQSPGKGLEWLGVIWGGGGTDYNAAFISRLNIIKDNSKSQVFFKMNSLQADDTAIYYCARYSKYGHFDVWGTGTAVTVSS
VL: QAVVTQESALTTSPGETVTLTCRSSTGAVTTSNYANWVQEKPDHLFTGLIGGTYNRVPGVPARFSGSLIGDKAALTITGAQTEDEAIYFCALWYSNHFWVFGGGTKLTVLG
notes: as for B1
B5: F1.60.9 (antibody, human IgG1, kappa, V domains shown)
VH: QVQLKESGPGLVAPSQSLSITCTVSGLSLNNYGVSWVRQPPGKGLEWLGVIWGDGSTNYHSALISRLSISKDNSKSQVFLKLNSLHTDDTATYYCAINWGDYWGQGTTLIVSS
VL: DIKMTQSPSSMNASLGERVTITCKASQDINSYLSWFQQKPGKSPKILIYRANRLIDGVPSRFSGSGSGQDYSLTISSLEYEDMGIYYCLQYGVFPLTFGAGTKLELKR
notes: as for B3
B6: F1.245.2 (antibody, human IgG1, kappa, V domains shown)
VH: EVQLQQSGAELVKPGASVKLSCTGSGFNIKDYYIHWVKQRTEQGLEWMGRIDPEDGETEYAPKFQDEATITSDTSSNTAYLQLSSLTYEDTAVYYCAREAAGYFYRGSSYGYFDVWGTGTTVTVSS
VL: DFQMTQTTSFLSASLGDRVTISCSASQDISNYLNWYQQKPDGTVKLLIYYTSSLHSGVPSRFSGSGSGTDYSLTISNLEPEDIATYYCQQYSMLPYTFGGGTKLEMER
notes: as for B3

Where a chain is given by its changes, count along the chain named.

The EC50 (read off the curve) is the concentration needed to bring the measured effect to its halfway point.

For the first experiment, the target named is T1, human CD22-ECD-His protein. Briefly: ELISA, Ab 0.001 nM. The gist of the method:
(§1)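 Coat: CD22-ECD-His 2 μg/mL PBS, 4 °C o/n. Block PBS/2% BSA 2 h RT. Ab 2 h 37 °C; HRP 2° 2 h 37 °C; TMB 30 min RT, 1.0 N HCl stop.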
Background: In an ELISA, binding on a coated surface is turned into a signal by an enzyme label.
In the case of B1, the OD450 was 0.57 OD450.

With B2, the OD450 came out at 0.66 OD450.

In turn, B3 came in with an OD450 of 0.6 OD450.

Take B4: the OD450 was 0.43 OD450.

The molecule B5 showed an OD450 of 0.47 OD450.

In turn, B6 returned an OD450 of 1.24 OD450.

The target of a further experiment is T1, human CD22-ECD-His protein. As to the kind of experiment: ELISA, Ab 0.0001 nM. The gist of the method:
as §1
The molecule B1 displayed an OD450 of 0.18 OD450.

B2 showed an OD450 of 0.32 OD450.

B3 gave an OD450 of 0.28 OD450.

The molecule B4 gave an OD450 of 0.25 OD450.

The molecule B5 yielded an OD450 of 0.13 OD450.

In turn, B6 had an OD450 of 0.44 OD450.

The next experiment has as its target T1, human CD22-ECD-His protein. As to the kind of experiment: ELISA, human CD22-ECD-His coated. In short, it runs like this:
as §1
In the case of B1, the “EC50 (read off the curve)” value is ~0.03 nM.

As for B2, the “EC50 (read off the curve)” value is ~0.03 nM.

B3: the “EC50 (read off the curve)” value was ~0.06 nM.

As to B4, the “EC50 (read off the curve)” value is ~0.06 nM.

Consider B5, for which the concentration for a half-maximal effect (EC50 (read off the curve)) was ~0.05 nM.

Take B6: the 50% effective concentration (EC50 (read off the curve)) is ~0.01 nM.

The target in another experiment is T2, murine CD22 protein (ACROBiosystems, …). Briefly: ELISA, murine CD22-ECD-His coated. In short, it runs like this:
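Plates were coated overnight at 4° C with 2 μg/mL CD22 protein in PBS and blocked with PBS + 2% BSA. Chimeric antibodies were incubated for 2 h at 37° C, then HRP-labelled secondary for 2 h at 37° C. Bound antibody was read by TMB colour development (30 min, RT) stopped with 1.0 N HCl.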
As for B1, the binding result was “no binding (tested: 100 nM)”.

Regarding B2, the binding result is reported as “no binding (tested: 100 nM)”.

Regarding B3, the binding result is listed as “no binding (tested: 100 nM)”.

As to B4, the binding result is “no binding (tested: 100 nM)”.

Turning to B5, the binding result was “no binding (tested: 100 nM)”.

In the case of B6, the binding result is “no binding (tested: 100 nM)”.

The values are drawn from patent US20240084003A1 (SIMCERE ZAIMING PHARMACEUTICAL, published 2024).
